The labels stand for the following.
B1: TPR 5TU (parent)
chain: GGAUCUUCUCGAUCUAACAAAAAAGACAAAUCUGCCACAAAGCUUGAGAGCAUCUUCGGAUGCAGAGGCGGCAGCCUUCGGUGGCGCGAUAGCGCCAACGUUCUCAACUAUGACACGCAAAACGCGUGCUCCGUUGAAUGGAGUUUAUCAUG

This sample holds only a part of the variants without activity. Some results are limits rather than exact numbers.

The data set covers variants of B1. Kind of data set: polymerase ribozyme fitness, log enrichment relative to wild type (log ratio); higher = more active; in vitro selection for triplet polymerase activity. In a few lines:
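A single round of triplicate in vitro selection, including frozen incubation at −7 °C, was applied to PCR-built, transcribed mutant libraries of each subunit of a heterodimeric triplet polymerase ribozyme. Illumina sequencing of input and output libraries retained genotypes with ≥10 input reads and ≥1 read per output. Fitness is the base-2 logarithm of genotype enrichment divided by wild-type enrichment, from inverse-variance-weighted replicate averages.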
In the case of GGAUCGUCUCGAUCUAUCAAUAAAGACAAAUCUGCCACAAAGCUUGAGCGUAUCUUCGGAUGCAGAGGCGGCAGCCUUUGGUGACGCGAUAGCGCCAACGUUCUCAACUAUGAGACGCAAAACGCGUGCUCCGUUGAAUGGAGUUUAUCAUG [U6G A17U A21U A49C C51U C79U G84A C114G], the “polymerase ribozyme fitness (log ratio)” value was at most -4.2. Regarding GGAUCGUGUCGAUCUAACAAAAAAGACAAAUCUGCCACAAAGCUUGAGAGCAUCUUCGGAUGCAGAGGCGGCAGCCUUCGGUGGCGCGAUAGCGCCAACGUUCUCAACUAUGACACGCAAAACGCGUGCUCCGUUGAAUGGAGUUUAUCAUG [U6G C8G], the “polymerase ribozyme fitness (log ratio)” value is -3.65.

GGAUCCGCUCGAUCUAACAAAAAAGACAAAUCUGCCACAAAGCUUGAGAGCAUCUUCGUAUGCAGAGCCGGCAGCCUUCGGCGGCGCGAUAGCGCCAACGUUCUCAACUAUGACACGCAAAACGCGUGCUCCGUUUAAUGGAGUUUAUCAUG [U6C U7G G59U G68C U82C G136U]: the “polymerase ribozyme fitness (log ratio)” value is at most -4.2. As to GGAUCGUCUCGAUCUAACAAAAAAGACAAAUCUGCCACAAAGCUUGAGAGCAUCUUCGGAUGCAGAGGCGGCUGCCUUCGCUGGCGCGAUAGCGCCACUGUUCUCAACUAUGACACGCAAAACGCGUGCUCCGUUGAAUGGAGCUUAUCAUG [U6G A73U G81C A98C C99U U144C], the “polymerase ribozyme fitness (log ratio)” value was -3.62. With GGAUCGUCUCGAUCUAACAAAAAAGUCAAAUCUGCCACAAAGCUUGAGAGCAUCUUCGGAUGCAGAGGCGGCAGCCUUCGGUGCCGCGAUAGCGCCAACGUUCUCAACUAUGACACGCAAAACGCGUGCUCCGUUGAAUGGAGUUUAUCAUG [U6G A26U G84C] the figure was -2.97. With GGAUCCUCUCGAUCUAACAAAAAAGACAAAUCUGCCACAAAUCUUGAGAGCAUCUUCGGAUGCAGAGGCGGCAGCCGUCGGUGGCGUGAUAGCGCCAACGUUCUCAACUAUGACACGCAAAUCGCGUGCUCCGUUGAAUGGAGUUUAUCAUG [U6C G42U U77G C87U A122U] the figure was at most -4.2; with GGAUCGUCUCGAUCUAACAAAAAAGACAAAUCUGCCACAAAGCUUGAGAGCAUCUUCGGAUGCAGAGGCGGCAGCCUUCGGUGGCGCGAUAGCGCCAACGUUCUCAACUAUGACACGCACAACGCGUGCUCCGUUCAAUGGAGUUUAUCAUG [U6G A120C G136C], -3.69. The same measure for GGAUCCUCUCGAUCUAACAAAAAAGACAAAUCUGCCACAAAGCUUGAGAGCAUCUUCGGAUGCAGAGGCGGCAGCCUUCGGUGGCGCGAUAGCGCGAACGUUCUUAACUAUGACACGCAAAACGCGUGCUCCGUUGAAUGGAGUUUAUCAUG [U6C C96G C105U]: -0.764. GGAUCGUCUCGAUCUAACAAAAAAGACAAAUCUGCCGCAAAGCUUGAGAGCAACUUCGGAUGCAGAGGCGGCAGCCUUCUGUGGCGCGACAGCGCCAACGUUCUCAACUAUGACACGCAAAACGCGUGCUCCGUUGAAUGGAGUUUAUAAUG [U6G A37G U53A G80U U90C C149A]: the “polymerase ribozyme fitness (log ratio)” value was at most -4.2. With GGAUCGUCUCGAUCUAACAAAAAAGACAAAUCUGCCGGAAAGCUUGAGAGCAUCUUCGGAUGCAGAGGCGGCAGCCUUCGGUGGCGCGAUAGCGUCAACGUUCUCAACUAUGACAUGCAAAACGCGUGCUCCGUUUAAAGGAGUUCAUCAUG [U6G A37G C38G C95U C116U G136U U139A U146C] the figure was at most -4.2.

As to GGAUCGUCUCGAUCUAACAACAAAGACAAAUCUGCCACAAAGCUUGAGAGCAUCUUCGGAUGCAGAGGCGGCAGCCUUCGGUGGCGCGAUAGCGCCAACGUUCUCAACUAUGACACGCAAAACGCGUGCUCCGUUGAAUGGAGUUUAUCAUA [U6G A21C G152A], the “polymerase ribozyme fitness (log ratio)” value is -2.84. With GGAUCGUCUCGAUCUAACAAAAAUGACAAAUCUGCCACAAAGCUUGAGAGCAUCUUCGGAUGCAGAGGCGGCAGCCUUAGGUGUUGCGAUAGCGCCAACGUUCUCAACUAUGACACUCAAAACGCGUGCUCCGUUGAAUGAAGUUUAUCAUG [U6G A24U C79A G84U C85U G117U G141A] the figure was at most -4.2; with GGAUCGUCUCGAUCUUAUAAAAAAGACAAAUCUGCCACAAAGCUUGAGAGCAUCUUCGGAUGCAGACGCGGCAGCCUUCGGUGGCGCCAUAGCGCCAACGUUCUCAACUAUGACACGCAAAACGCGUGCUCCGUUGAAUGGAGUUUAUCAUG [U6G A16U C18U G67C G88C], at most -4.2. The same measure for GGAUCGUCUCGAUCUAACAAAAAAGACUAAUCUGCCACAAGGCUUGAGAGCAUCUUCGGAUGCAGAGGCGGCAGCCUUCGGUGGCGCCAUAGCGCCAACGUUCUCAACUAUGACACGCAAAACGCGUGCUCCGUUGAAUGGAACUGAUCAUG [U6G A28U A41G G88C G143A U144C U146G]: at most -4.2; for GGAUCCUCUCGAUCUAACAAAAAAGACAAAUCUGCCACAAAGCUUGAGAGCAUCUUCGGAUGCAGAGGCGGCAGCCUUCGGUGGCGCGAUAGCGCCAACGUUCUCAACUAUGACACGCAAAACCCGUGAUCCGUUGAAUGGAGUUUAUCAUG [U6C G124C C129A]: -4.16; for GGAUCGUCUCGAUCUAACAAAAAAGACAAAUCUGCCACAAAGCUUGAGAGCAUCUUCGGCUGCAGAGGCGGCCGCCUUCGGUGGCGAGAUAGCGCCAACGUUCUCAACUAUGACACGUAAAACGCGUGCUCCGUUGAAUGGAGUUUAUCAUG [U6G A60C A73C C87A C118U]: at most -4.2. The same measure for GGAUCGUCUCGAUCUAACAAAAAAGACAAAUCUGCCACAAGGCUUGAUAGCAUUUUCGGAUGCAGAGGCGGCAGCCUUCGGUGGCGCGAUAGCGCCAACGUUCUCAACUAUGACACGCAAAUCGCGUGCUCCGUUGAAUGGAGUUUAUCAUG [U6G A41G G48U C54U A122U]: -0.949. As for GGAUCGUCUCGAUCUAACAAAAUAGACAAAUCUGCCACAAAGCUUGAGAGAAUCGUCGGAUGCAGAGGCGGCAGCCUUCGGUGGCGCGAUAGCGCCAACGUUCUCAACUAUGACUCGCAAAACGCGUGCUCCGUUGAAUGGAGUUUAUCAUG [U6G A23U C51A U55G A115U], the “polymerase ribozyme fitness (log ratio)” value is at most -4.2.

GGAUCGUCUCGAUCUAACACAGAAGCCAAAUCUGCCACAAAGCUUGAGAGCAUCUUAGGAUGCAGAGGCGGCAGCCUUCGGUGGCGAGAUAGCGCCAACGUUCUCAACUAUGACACGCAGAACGCGUGCUCCGUUGAAUGGAGUUUAUCAUG [U6G A20C A22G A26C C57A C87A A120G]: the “polymerase ribozyme fitness (log ratio)” value was at most -4.2.

(Values after the RNAGym collection of RNA variant scans (doi:10.1073/pnas.2313332121).)
